Consider 2 molecules from US20240270846A1.

The assay addresses recombinant human CD3 (human) (UniProt P07766). As to the kind of experiment: SPR (Biacore T200, 37 degrees C), antibody captured by anti-human Fc, antigen as analyte, 1:1 model. (Surface plasmon resonance follows binding to a sensor surface in real time, without labels.)

recombinant human CD3 (human), sequence (P07766 23-126): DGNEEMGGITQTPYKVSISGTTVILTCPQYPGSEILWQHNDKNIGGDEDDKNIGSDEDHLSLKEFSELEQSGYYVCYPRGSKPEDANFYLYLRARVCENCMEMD

B1: GPC3/CtrlxCD3 trispecific antibody (protein, from a related filing, part only)
VH 1: QVQLVESGGGLVQPGRSLRLSCAASGFTFSNAWMHWVRQAPGKGLEWVAQIKDRANSYNTYYAESVKGRFTISRDDSKNSIYLQMNSLKTEDTAVYYCRYVHYTTYAGSSFSYGVDAWGQGTTVTVSS
VL 1: DIVMTQSPLSLPVTPGEPASISCRSSQPLVHSNRNTYLHWYQQKPGQAPRLLIYKVSNRFSGVPDRFSGSGSGTDFTLKISRVEAEDVGVYYCGQGTQVPYTFGQGTKLEIK
VH 2: QVQLVQSGAEVKKPGASVTVSCKASGYTFTDYEMHWIRQPPGEGLEWIGAIDGPTPDTAYSEKFKGRVTLTADKSTSTAYMELSSLTSEDTAVYYCTRFYSYTYWGQGTLVTVSS
VL 2: DIVMTQSPLSLPVTPGEPASISCRSSQPLVHSNRNTYLHWYQQKPGQAPRLLIYKVSNRFSGVPDRFSGSGSGTDFTLKISRVEAEDVGVYYCGQGTQVPYTFGQGTKLEIK
modifications: left off: another chain or arm of the molecule; a dimerising Fc or GST
With B1, the Kd (commonly the concentration at which binding is half-saturated) turned out to be 17.8 nM, the dissociation rate constant (koff) (commonly the rate constant with which the complex falls apart) came to 0.00151 s⁻¹ and the association rate constant (kon) (usually the second-order rate constant of association) was determined as 85000 M⁻¹ s⁻¹.

B2: Ctrl/CtrlxCD3 trispecific antibody (protein, part only; not given: Control arm variable domains, constant regions, part only)
VH: QVQLVESGGGLVQPGRSLRLSCAASGFTFSNAWMHWVRQAPGKGLEWVAQIKDRANSYNTYYAESVKGRFTISRDDSKNSIYLQMNSLKTEDTAVYYCRYVHYTTYAGSSFSYGVDAWGQGTTVTVSS
VL: DIVMTQSPLSLPVTPGEPASISCRSSQPLVHSNRNTYLHWYQQKPGQAPRLLIYKVSNRFSGVPDRFSGSGSGTDFTLKISRVEAEDVGVYYCGQGTQVPYTFGQGTKLEIK
B2: the dissociation constant Kd was determined as 17.5 nM, the koff came out at 0.00147 s⁻¹ and the kon was determined as 83700 M⁻¹ s⁻¹.
